# Target: GST-NTF2L (GST-tagged NTF2-like domain of G3BP1) (human)
# Assay: SPR
# Sequence of GST-NTF2L (GST-tagged NTF2-like domain of G3BP1) (human) (chain, as listed by the source): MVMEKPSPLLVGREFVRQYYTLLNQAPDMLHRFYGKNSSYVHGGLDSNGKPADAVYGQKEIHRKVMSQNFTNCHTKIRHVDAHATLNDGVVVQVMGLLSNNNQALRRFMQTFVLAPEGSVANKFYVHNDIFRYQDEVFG
row,Binder,Kd
1,MALHSPQYIFGDFSPDEFNQFFVTP [USP10 (1–25) peptide],110 nM
2,LTFGDFDEHEVDALASGITFGDFDD [SFV nsP3 (449–473) peptide],2500 nM
